This is an account of results in article PMC10786891, “Massively parallel profiling of RNA-targeting CRISPR-Cas13d”.

T1: EsCas13d, nuclease-dead (Eubacterium siraeum, UniProt B0MS50, R295A;H300A;R849A;H854A)
T1 sequence: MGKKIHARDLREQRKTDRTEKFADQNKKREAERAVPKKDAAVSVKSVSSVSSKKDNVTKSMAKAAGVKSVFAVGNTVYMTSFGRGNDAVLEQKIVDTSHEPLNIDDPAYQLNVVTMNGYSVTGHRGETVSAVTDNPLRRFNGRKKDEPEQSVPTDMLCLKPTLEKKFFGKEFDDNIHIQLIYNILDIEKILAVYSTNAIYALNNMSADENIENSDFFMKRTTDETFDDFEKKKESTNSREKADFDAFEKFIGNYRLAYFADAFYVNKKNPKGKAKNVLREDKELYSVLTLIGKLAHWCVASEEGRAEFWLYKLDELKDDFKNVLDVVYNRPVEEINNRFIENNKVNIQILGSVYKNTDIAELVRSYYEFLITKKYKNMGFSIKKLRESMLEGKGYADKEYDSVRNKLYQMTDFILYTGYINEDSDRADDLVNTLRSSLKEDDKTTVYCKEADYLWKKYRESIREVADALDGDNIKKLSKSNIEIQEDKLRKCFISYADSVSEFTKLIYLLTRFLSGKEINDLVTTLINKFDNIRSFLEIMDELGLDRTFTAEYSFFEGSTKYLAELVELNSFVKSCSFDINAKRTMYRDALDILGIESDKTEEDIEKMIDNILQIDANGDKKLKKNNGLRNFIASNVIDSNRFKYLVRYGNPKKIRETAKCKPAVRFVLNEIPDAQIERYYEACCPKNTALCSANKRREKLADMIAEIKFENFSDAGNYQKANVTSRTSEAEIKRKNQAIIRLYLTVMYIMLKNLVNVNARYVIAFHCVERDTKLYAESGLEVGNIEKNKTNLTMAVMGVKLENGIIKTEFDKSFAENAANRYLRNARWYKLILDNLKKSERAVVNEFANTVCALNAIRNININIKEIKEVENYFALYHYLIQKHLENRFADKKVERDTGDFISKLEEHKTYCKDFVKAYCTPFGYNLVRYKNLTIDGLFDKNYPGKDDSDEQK

B1: target 3 G4C,U20C (mixed)
RNA 1: CACCCGUGCAAAAUUGCAGGGGUCUAAAACGACCUGAAUAUUUCAGAUCAAA
RNA 2: GGGAAUGGAUCCACAUCUACGAAUUCGUUUUCGAUCUGAAAUAUUCACGUCUGCAGAUCGGAAGAGCACACGU
B2: target 3 insA 3' of 10,insU 3' of 6 (mixed)
RNA 1: CACCCGUGCAAAAUUGCAGGGGUCUAAAACGACCUGAAUAUUUCAGAUCAAA
RNA 2: GGGAAUGGAUCCACAUCUACGAAUUCGUUUUUGAUCUGAAAUAAUUCUAGGUCUGCAGAUCGGAAGAGCACACGU
B3: target 3 G19U,U22A (mixed)
RNA 1: CACCCGUGCAAAAUUGCAGGGGUCUAAAACGACCUGAAUAUUUCAGAUCAAA
RNA 2: GGGAAUGGAUCCACAUCUACGAAUUCGUUAUUUAUCUGAAAUAUUCAGGUCUGCAGAUCGGAAGAGCACACGU
B4: target 3 insA 3' of 21,insU 3' of 5 (mixed)
RNA 1: CACCCGUGCAAAAUUGCAGGGGUCUAAAACGACCUGAAUAUUUCAGAUCAAA
RNA 2: GGGAAUGGAUCCACAUCUACGAAUUCGUUUUAUGAUCUGAAAUAUUCAUGGUCUGCAGAUCGGAAGAGCACACGU
B5: target 3 U2C,G14U (mixed)
RNA 1: CACCCGUGCAAAAUUGCAGGGGUCUAAAACGACCUGAAUAUUUCAGAUCAAA
RNA 2: GGGAAUGGAUCCACAUCUACGAAUUCGUUUUUGAUCUUAAAUAUUCAGGCCUGCAGAUCGGAAGAGCACACGU
B6: target 3 insU 3' of 22,insG 3' of 7 (mixed)
RNA 1: CACCCGUGCAAAAUUGCAGGGGUCUAAAACGACCUGAAUAUUUCAGAUCAAA
RNA 2: GGGAAUGGAUCCACAUCUACGAAUUCGUUUUUUGAUCUGAAAUAUUGCAGGUCUGCAGAUCGGAAGAGCACACGU
B7: target 3 insC 3' of 8,insA 3' of 3 (mixed)
RNA 1: CACCCGUGCAAAAUUGCAGGGGUCUAAAACGACCUGAAUAUUUCAGAUCAAA
RNA 2: GGGAAUGGAUCCACAUCUACGAAUUCGUUUUUGAUCUGAAAUAUCUCAGGAUCUGCAGAUCGGAAGAGCACACGU
B8: target 3 G4C,U21C (mixed)
RNA 1: CACCCGUGCAAAAUUGCAGGGGUCUAAAACGACCUGAAUAUUUCAGAUCAAA
RNA 2: GGGAAUGGAUCCACAUCUACGAAUUCGUUUCUGAUCUGAAAUAUUCACGUCUGCAGAUCGGAAGAGCACACGU
B9: target 3 insC 3' of 13,insU 3' of 3 (mixed)
RNA 1: CACCCGUGCAAAAUUGCAGGGGUCUAAAACGACCUGAAUAUUUCAGAUCAAA
RNA 2: GGGAAUGGAUCCACAUCUACGAAUUCGUUUUUGAUCUGACAAUAUUCAGGUUCUGCAGAUCGGAAGAGCACACGU
B10: target 3 insA 3' of 8,insG 3' of 8 (mixed)
RNA 1: CACCCGUGCAAAAUUGCAGGGGUCUAAAACGACCUGAAUAUUUCAGAUCAAA
RNA 2: GGGAAUGGAUCCACAUCUACGAAUUCGUUUUUGAUCUGAAAUAUAGUCAGGUCUGCAGAUCGGAAGAGCACACGU
B11: target 3 G3C,C6U (mixed)
RNA 1: CACCCGUGCAAAAUUGCAGGGGUCUAAAACGACCUGAAUAUUUCAGAUCAAA
RNA 2: GGGAAUGGAUCCACAUCUACGAAUUCGUUUUUGAUCUGAAAUAUUUAGCUCUGCAGAUCGGAAGAGCACACGU
B12: target 3 insG 3' of 22,insG 3' of 22 (mixed)
RNA 1: CACCCGUGCAAAAUUGCAGGGGUCUAAAACGACCUGAAUAUUUCAGAUCAAA
RNA 2: GGGAAUGGAUCCACAUCUACGAAUUCGUUUGGUUGAUCUGAAAUAUUCAGGUCUGCAGAUCGGAAGAGCACACGU
B13: target 3 insA 3' of 14,insG 3' of 2 (mixed)
RNA 1: CACCCGUGCAAAAUUGCAGGGGUCUAAAACGACCUGAAUAUUUCAGAUCAAA
RNA 2: GGGAAUGGAUCCACAUCUACGAAUUCGUUUUUGAUCUGAAAAUAUUCAGGUGCUGCAGAUCGGAAGAGCACACGU
B14: target 3 G4U,U7C (mixed)
RNA 1: CACCCGUGCAAAAUUGCAGGGGUCUAAAACGACCUGAAUAUUUCAGAUCAAA
RNA 2: GGGAAUGGAUCCACAUCUACGAAUUCGUUUUUGAUCUGAAAUAUCCAUGUCUGCAGAUCGGAAGAGCACACGU
B15: target 3 G4C,A11G (mixed)
RNA 1: CACCCGUGCAAAAUUGCAGGGGUCUAAAACGACCUGAAUAUUUCAGAUCAAA
RNA 2: GGGAAUGGAUCCACAUCUACGAAUUCGUUUUUGAUCUGAAGUAUUCACGUCUGCAGAUCGGAAGAGCACACGU
B16: target 3 del4,del6 (mixed)
RNA 1: CACCCGUGCAAAAUUGCAGGGGUCUAAAACGACCUGAAUAUUUCAGAUCAAA
RNA 2: GGGAAUGGAUCCACAUCUACGAAUUCGUUUUUGAUCUGAAAUAUUAGUCUGCAGAUCGGAAGAGCACACGU
B17: target 3 insC 3' of 9,insC 3' of 5 (mixed)
RNA 1: CACCCGUGCAAAAUUGCAGGGGUCUAAAACGACCUGAAUAUUUCAGAUCAAA
RNA 2: GGGAAUGGAUCCACAUCUACGAAUUCGUUUUUGAUCUGAAAUACUUCACGGUCUGCAGAUCGGAAGAGCACACGU
B18: target 3 U2A,U7G (mixed)
RNA 1: CACCCGUGCAAAAUUGCAGGGGUCUAAAACGACCUGAAUAUUUCAGAUCAAA
RNA 2: GGGAAUGGAUCCACAUCUACGAAUUCGUUUUUGAUCUGAAAUAUGCAGGACUGCAGAUCGGAAGAGCACACGU
B19: target 3 U21C,U22A (mixed)
RNA 1: CACCCGUGCAAAAUUGCAGGGGUCUAAAACGACCUGAAUAUUUCAGAUCAAA
RNA 2: GGGAAUGGAUCCACAUCUACGAAUUCGUUACUGAUCUGAAAUAUUCAGGUCUGCAGAUCGGAAGAGCACACGU
B20: target 3 C1G,A9G (mixed)
RNA 1: CACCCGUGCAAAAUUGCAGGGGUCUAAAACGACCUGAAUAUUUCAGAUCAAA
RNA 2: GGGAAUGGAUCCACAUCUACGAAUUCGUUUUUGAUCUGAAAUGUUCAGGUGUGCAGAUCGGAAGAGCACACGU
B21: target 3 G3C,G4U (mixed)
RNA 1: CACCCGUGCAAAAUUGCAGGGGUCUAAAACGACCUGAAUAUUUCAGAUCAAA
RNA 2: GGGAAUGGAUCCACAUCUACGAAUUCGUUUUUGAUCUGAAAUAUUCAUCUCUGCAGAUCGGAAGAGCACACGU
B22: target 1 C2G,A14C (mixed)
RNA 1: CACCCGUGCAAAAAUGCAGGGGUCUAAAACUGAGCGGAUAACCUCUCUAUGG
RNA 2: GGGAAUGGAUCCACAUCUACGAAUUCGUACCAUAGAGCGGUUAUCCGCUGACCGAGAUCGGAAGAGCACACGU
B23: target 1 C2A,G17U (mixed)
RNA 1: CACCCGUGCAAAAAUGCAGGGGUCUAAAACUGAGCGGAUAACCUCUCUAUGG
RNA 2: GGGAAUGGAUCCACAUCUACGAAUUCGUACCAUAUAGAGGUUAUCCGCUAACCGAGAUCGGAAGAGCACACGU

This data set has as its target T1, EsCas13d, nuclease-dead. The experiment in a line: crRNA (strand 1, pre-loaded); Mg2+; 40 mM Tris-HCl pH 7.5, 150 mM NaCl, 6 mM MgCl2, 1 mM DTT, 0.1% Tween-20, 0.2 mg/ml BSA; 25 C; 10 min per concentration, then washed. The settings on record: tags: His6-TwinStrep-SUMO cleaved; N-terminal SNAP kept (SNAP-Surface 488); label: 3' end held by stalled T7 RNA polymerase.
Usually Kd stands for the equilibrium constant for the complex coming apart. Read a low Kd as higher affinity. In the case of B1, binding was put at a Kd of 57 ± 12 nM.

Take B2: the Kd stood at 79.5 ± 14.5 nM.

For the molecule B3, the dissociation constant (Kd) turned out to be 80 ± 7 nM.

The molecule B4 displayed a dissociation constant Kd of 44 ± 4.65 nM.

On to B5, for which binding was characterised by a dissociation constant (Kd) of 82 ± 34 nM.

As to B6, binding was characterised by a dissociation constant (Kd) of 85 ± 26.5 nM.

For B7, the Kd turned out to be 93 ± 27 nM.

Consider B8, for which the affinity, expressed as Kd, was 60 ± 21 nM.

Consider B9, for which the Kd worked out at 32.5 ± 8 nM.

B10: the dissociation constant Kd stood at 53.5 ± 8.5 nM.

As for B11, binding was characterised by a dissociation constant (Kd) of 13.1 ± 0.95 nM.

In turn, B12 returned a Kd of 64.5 ± 13.5 nM.

B13 showed a Kd of 32.8 ± 3.65 nM.

Consider B14, for which the Kd worked out at 120 ± 40 nM.

In turn, B15 showed a Kd of 54.5 ± 18.5 nM.

B16 displayed an equilibrium dissociation constant (Kd) of 19 ± 3.25 nM.

B17 returned a Kd of 99 ± 21 nM.

In the case of B18, the affinity, expressed as Kd, was 62.5 ± 10.5 nM.

B19 showed a dissociation constant (Kd) of 30.5 ± 7 nM.

Molecule B20 returned a Kd of 33.5 ± 8.5 nM.

B21: binding was put at a Kd of 18.3 ± 3.2 nM.

Molecule B22 gave a Kd of 44.8 ± 3.3 nM.

In turn, B23 gave a Kd of 30.5 ± 2.6 nM.
